The target of data set [1] is T1, LIMYB (L10-[…] MYB DOMAIN-CONTAINING PROTEIN) (Arabidopsis thaliana, UniProt Q9FFJ8 1-449).
T1 sequence: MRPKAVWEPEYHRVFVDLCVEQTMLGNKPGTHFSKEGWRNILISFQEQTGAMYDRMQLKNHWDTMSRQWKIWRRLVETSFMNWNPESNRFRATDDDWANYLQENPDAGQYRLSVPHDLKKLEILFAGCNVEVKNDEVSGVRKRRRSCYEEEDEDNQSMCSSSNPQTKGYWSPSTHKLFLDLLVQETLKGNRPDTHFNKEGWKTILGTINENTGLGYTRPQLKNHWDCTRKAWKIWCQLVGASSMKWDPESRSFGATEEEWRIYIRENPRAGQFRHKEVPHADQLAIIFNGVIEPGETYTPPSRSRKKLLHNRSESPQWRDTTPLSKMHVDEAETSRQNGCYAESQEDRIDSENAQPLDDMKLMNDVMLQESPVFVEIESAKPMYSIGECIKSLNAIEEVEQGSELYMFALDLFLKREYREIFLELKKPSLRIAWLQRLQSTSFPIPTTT
The experiment in a line: competition.

In data set [2] the target is T1, LIMYB (L10-[…] MYB DOMAIN-CONTAINING …). The experiment in a line: EMSA.

B1: RPL18 26-bp mutant competitor (CAAAAC to ATCGTG) (dsDNA)
DNA 1: GATGGAGGAAGATCGTGATTGACCAT
DNA 2: ATGGTCAATCACGATCTTCCTCCATC
As for B1, the binding result in data set [1] was “no binding”.

B2: RPL18 promoter 26-bp CAAAAC fragment (dsDNA)
DNA 1: GATGGAGGAAGCAAAACATTGACCAT
DNA 2: ATGGTCAATGTTTTGCTTCCTCCATC
Take B2: the binding result in data set [2] is “binds”.

Values taken from publication PMC12075613.
